From the RNAGym collection of RNA variant scans (doi:10.7554/elife.80360)

B1: Hammerhead Ribozyme (parent)
chain: ACCGGAUGUGCUUUCCGGUCUGAUGAGUCCGUGAGGACGAAACAG

Variants of: B1
Experiment: self-cleavage, relative activity (ratio to wild type); higher = more cleavage; co-transcriptional

Compared with ACCGGAUGUGCUUUCCGGUCUAAUGAGACCGUGAGGACGAAACAG, AACGGAUGUGCUUUCCGGUCUGAUGAGUCCGUGAGGACGAAACUG is higher in self-cleavage: 0.326 for the first, 0.375 for the second.

Compared with ACCGGAUAUGCUGUCCGGUCUGAUGAGUCCGUGAGGACGAAACAG, ACCGGAUGUGCUUUCCCGUCUGAUCAGUCCGUGAGGACGAAACAG is lower in self-cleavage: 1.24 for the first, 0.403 for the second.

Going from ACCCGAUGUGCUUUCCGGUCUGAUGAGUCCCUGAGGACGAAACAG to ACCGGCUGUGCUUUCCGGUCUGACGAGUCCGUGAGGACGAAACAG, the self-cleavage falls from 0.768 to 0.387.

Going from ACCGGAUGCGCUUUCAGGUCUGAUGAGUCCGUGAGGACGAAACAG to ACCGGAUAUGCUUUCCGGUCUGAUGAGUCCGUGAGGACCAAACAG, the self-cleavage falls from 1.04 to 0.298.

Going from ACCGGCUGUGCUUUCCGGUCUAAUGAGUCCGUGAGGACGAAACAG to ACCGGAUGUGCUUUCCGGUGUGAUUAGUCCGUGAGGACGAAACAG, the self-cleavage rises from 0.29 to 0.313.

First: ACCGGAUGUGCUUUCCGGUCUGAUGAGUACGUGAGGACGUAACAG
Second: ACCGGACGUGCUUGCCGGUCUGAUGAGUCCGUGAGGACGAAACAG
The self-cleavage of the first is lower: 0.314 for the first, 0.975 for the second.

Going from ACCGGAUGUGCUUGCCGGUCUGAUGAGUCCGUGUGGACGAAACAG to ACCGGAUGUGCUUUGCGGUCUGAUGAGUCCGUGAGAACGAAACAG, the self-cleavage falls from 0.782 to 0.417.

Compared with ACCGGAUGUGUUUUCCGGUCUGAUGAGUCCGUUAGGACGAAACAG, ACCGGAUGUGCAUUCCGGUCUGAUGAGUCCGUGAGAACGAAACAG is lower in self-cleavage: 1.04 for the first, 0.571 for the second.

Compared with ACCGGAUGAGCUUUCCUGUCUGAUGAGUCCGUGAGGACGAAACAG, ACCGGAUGUGCAUUCCGGUCUGAUGAGUCCGUGACGACGAAACAG is higher in self-cleavage: 0.565 for the first, 0.653 for the second.

Compared with ACCGGAUGUGCUGCCCGGUCUGAUGAGUCCGUGAGGACGAAACAG, ACCGGAUGUGCUUUCCGGUCUUAUGAGUCUGUGAGGACGAAACAG is lower in self-cleavage: 0.598 for the first, 0.344 for the second.

Going from AACGGAUGUGCUUUCCGGUCUGAUGAGUCCGUGAUGACGAAACAG to ACCUGAUGUGCUUUCCGGUCUGAUGAGUCCGUGAGGACCAAACAG, the self-cleavage falls from 0.457 to 0.266.

Going from ACCGGAUGUGCUCUCCGGUCUGAUGAGUCCGUGAGGACGCAACAG to ACCGCAUGUGCUUUCCGGUCUGAUGAGUCCGUUAGGACGAAACAG, the self-cleavage rises from 0.725 to 0.736.

Compared with ACCGGAUGUGCUUUCCCGUCUGAUGAGUCCGUGAGGAAGAAACAG, ACCGGAUGUGCUUUCUGGUCUGAUGAGUCCGUGAGGACUAAACAG is lower in self-cleavage: 0.451 for the first, 0.378 for the second.

Compared with ACCGGAUGUGCUUUCCGGUCUGAUGAGUACGAGAGGACGAAACAG, ACCGGAUGUGCUUUCCGGUCUGAUGAGUCCGUGAGGACGACACGG is lower in self-cleavage: 0.643 for the first, 0.594 for the second.

Compared with ACCGGAUGUGCUUUCAGGUCUGAUGAGUCCGUGAGGACGAAACGG, ACCGGAUGUGCUUUCCGGUCUCAUGAGUCCGUGAGCACGAAACAG is lower in self-cleavage: 1.35 for the first, 0.317 for the second.

First: ACCGGAUGUGCUUUCCGGUCUGUUGAUUCCGUGAGGACGAAACAG
Second: ACCGGGUGUGCUUUCCGGUCUGAUGAGUCCGUGAGGACGAAACAC
The self-cleavage of the first is lower: 0.279 for the first, 0.433 for the second.

Compared with ACCGGAUGUGCUUUCCGGUCUCAUGAGUCCGUGAGGACAAAACAG, GCCGGAUGUGCUUUCCGGUCUGAUGGGUCCGUGAGGACGAAACAG is higher in self-cleavage: 0.364 for the first, 0.397 for the second.

First: ACCGGAAGUGCUUUCCGGUCUGAUGAGUCCAUGAGGACGAAACAG
Second: ACCGGAUGUGCUUUCCGGUCUGAUGAGUGCGUGAGGAUGAAACAG
The self-cleavage of the first is higher: 1.28 for the first, 0.703 for the second.

First: ACCGGAUGUGCUUUCCGGUCUGAUGAAGCCGUGAGGACGAAACAG
Second: ACCGGAUGUGCUUUCGGGUCUGAUGAGUCCGUGAGGUCGAAACAG
The self-cleavage of the first is higher: 0.695 for the first, 0.606 for the second.

Going from CCCGGAUGUGCUUUCCGGUCUGAUGAGUCAGUGAGGACGAAACAG to ACCGGAUGUGCAUUCCGGUCUGAUGAGUCAGUGAGGACGAAACAG, the self-cleavage rises from 0.4 to 1.08.

Going from ACCGGAUGUGCUUUCCGGUCUGAUGAGUCCGCGAGGACGAAAUAG to ACCGGAUGUGCUAUCCGGUCUGAUGAGUCCGUUAGGACGAAACAG, the self-cleavage rises from 0.661 to 1.46.

First: AUCGGAUGUGCUUUCCGGUCUGAUGAAUCCGUGAGGACGAAACAG
Second: ACCGGAUGUGCUUUCCGGUCAGAUGAGUCAGUGAGGACGAAACAG
The self-cleavage of the first is higher: 1.06 for the first, 0.511 for the second.

Going from ACCGGAUGUGCUUUCCGGUCUGACGAAUCCGUGAGGACGAAACAG to ACGCGAUGUGCUUUCCGGUCUGAUGAGUCCGUGAGGACGAAACAG, the self-cleavage falls from 0.53 to 0.289.

First: ACCGGAUGUCCUUUCCGGGCUGAUGAGUCCGUGAGGACGAAACAG
Second: ACCGGAUGUGCUGUCCGGUCUGAUGAGGCCGUGAGGACGAAACAG
The self-cleavage of the first is lower: 0.353 for the first, 0.973 for the second.

Going from ACCGCAUGUGCUUUCCGGUCUGAUGAGUACGUGAGGACGAAACAG to ACCGGAUGUGCUUUCCGGUCUGAUCAGUCCGUGAGGACGAACCAG, the self-cleavage rises from 0.256 to 0.293.

Compared with ACCGGAUGUGCUUUCCGGGUUGAUGAGUCCGUGAGGACGAAACAG, ACCGGAGGUGCUUUCCGGUCUGAUGAGACCGUGAGGACGAAACAG is higher in self-cleavage: 0.306 for the first, 0.991 for the second.

Going from ACCGGAUGUGCUUUCCGAUCUGAUGAGUCCGUGAGGACGGAACAG to ACCGGAUGGGAUUUCCGGUCUGAUGAGUCCGUGAGGACGAAACAG, the self-cleavage rises from 0.351 to 1.47.

Going from ACCGGAUGUGCUUUCCGGUCUGGUCAGUCCGUGAGGACGAAACAG to ACCGGAUGAGCUAUCCGGUCUGAUGAGUCCGUGAGGACGAAACAG, the self-cleavage rises from 0.333 to 1.62.

Variant ACCGGAUGUGCCUUCCGAUCUGAUGAGUCCGUGAGGACGAAACAG has a self-cleavage of 0.627.
